Results reported in the supplement of paper PMC9170038.

Experiments:
MS2 coat protein [1] = assay: apparent KD of MS2 coat protein, switch ON state; designed switch direction (-1 OFF switch, 1 ON switch): -1; higher = weaker reporter binding; conditions: FMN input: 0 or 200 uM; Eterna round: R93 (includes R88 designs)
Procedure, shortened: (§1)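 Illumina sequencing clusters were used for on-chip transcription of designed RNA switches. Titration with SNAP-549-labelled MS2 coat protein followed, in twofold steps from 0.7 or 1.5 nM to 3 µM in 100 mM Tris-HCl pH 7.5, 80 mM KCl, 4 mM MgCl2, without or with constant ligand. Apparent KD is each design's median of fits to normalised cluster binding curves.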

MS2 coat protein [2] = assay: apparent KD of MS2 coat protein, switch OFF state (with FMN for OFF switches, without FMN for ON switches); designed switch direction (-1 OFF switch, 1 ON switch): -1; higher = weaker reporter binding; conditions: FMN input: 0 or 200 uM; Eterna round: R93 (includes R88 designs)
Procedure, shortened: as §1

Row | Sequence | apparent KD of MS2 coat protein (MS2 coat protein [1]) [nM] | apparent KD of MS2 coat protein (MS2 coat protein [2]) [nM]
1 | UAUACGUGAGGAUAUGCGAAUAACACGUUAGACAAAUAGACGCAGAAGGCACAUGAGGAUCACCCAUGUGAACC [JR_Exc004_Sub316] | 18.1 | 17
2 | AAGGGACAUGAGGAUCACCCAUGUCAGGAUAUGCGAAAAAAAAAAAUAAAAAAAAAAAGCAGAAGGGACACCAA [Mat - Exclusion 1 - Eli mod - D58] | 104 | 102
3 | AAAUAGUUAGGAUAUACAUGAGGAUCACCCAUGUGGACUUAUGGAGAAUAGUCUAAUGGUAGAAGGGACUAAAA [EX2 Malc#24] | 69.8 | 45.8
4 | AACAGUACAGGAUAUACAUGAGGAUCACCCAUGUGAAAAUUAAGUGGGAAACCACAAAGUAGAAGGGUACUGAA [Mat - Exclusion 3 - Eli mod - D59] | 22 | 114
5 | AACAGUACAGGAUAUACAUGAGGAUCACCCAUGUAAAGGGAAUAAAACAAAAAUAAAUGUAGAAGGGUACUGGA [Moding Maslow revisited (73) 21] | 69.3 | 129
6 | GAAAAGUCAGGAUAUGCAGACAAAGCAAAAAAGCAAUGUCUGCAGAAGGGACAUGAGGAUCACCCAUGUAAAAA [Mat - Exclusion 4 - Mayanna - D115] | 51.4 | 45.2
7 | AGUCAUACAGGAUAUACAUGAGGAUCACCCAUGUAAAUCCUAAAAAAGUGAUCCUCAUGUAGAAGGGUAUGACA [EX3 220: Super Stable 20] | 19.1 | 19.7
8 | AAAACACAUGAGGAUCACCCAUGUGAGGAUAUGCAAAACCCAUAUAAAAAGGGAAAAAGCAGAAGGCACAAAAA [wbt round 1 mod 12] | 22.4 | 27.8
9 | AAGAAGGUAGGAUAUACUAACGAAACUAAUGCAUAGAUAAAACAUGAGGAUCACCCAUGUAGAAGGGCCAGAAU [JR_Exc002_Sub015] | 43.8 | 26.6
10 | AAAGGGUCAGGAUAUCGAUGAAUAAUAAAACAAAGGAACAUCGAGAAGGGACAUGAGGAUCACCCAUGUAUAAC [May 80] | 42.4 | 48.4
11 | AAGAAUGAAGGAUAUACAUGAGGAUCACCCAUGUAAGAGAAAGAGGGAAAAGAGAAAAGUAGAAGGUCAAAGAA [Ruby 72] | 22 | 33.7
12 | AAAUGACUAGGAUAUACAUGAGGAUCACCCAUGUGUUAAAAUAAAUACACAAAAGAAAGUAGAAGGAGUCAAAG [Mat - Exclusion 3 - Mayanna mod - D125] | 21.5 | 43.4
13 | AAUAAGACAGGAUAUACUAAAGAAAUGAAAAGAAAUAAAGAACAUGAGGAUCACCCAUGUAGAAGGGUCAAUAA ['Apepi] | 50.3 | 32.4
14 | AAGAAGUGAGGAUAUCGAAGACUGUCGAAAAGACAGUCGAACGAGAAGGCACAUGAGGAUCACCCAUGUGAUAA [Mat - Exaclusion 4 - Eli mod - D70] | 28.2 | 107
15 | AAACUACUAGGAUAUACAACGGUGUCCUAACUACUAAGAAAACAUGAGGAUCACCCAUGUAGAAGGAGUAGUGA [Lauslabe] | 33.6 | 30.2
16 | GCUGUCCAAGGAUAUACAUGAGGAUCACCCAUGUGAGAGAAAAAAGUGAGAAAGAAAAGUAGAAGGUGGGUAGG [salish99-ex3-103] | 31.6 | 56.6
17 | AAUAAGUGAGGAUAUGUAAAUAGUAGAUAAGAUUCCCUAAAACAGAAGGCACAUGAGGAUCACCCAUGUAAAUA [JR_Exc004_Sub007] | 25.9 | 19.7
18 | AAGAAGGUAGGAUAUACUAGGGCAACUAAUGCAAAGAUAGAACAUGAGGAUCACCCAUGUAGAAGGGCCAGAAA [JR_Exc002_Sub402] | 35.7 | 40.5
19 | UCCUGACAUGAGGAUCACCCAUGUCAGGAUAUAGUAUGAAAAAAAAAAAAAAAAAAUACUAGAAGGGACAAGGG [Design 13: Super Stable Short Helix 4] | 18.5 | 26.8
20 | AGUAUGCGAGGAUAUACAUGAGGAUCACCCAUGUGAGAGAUAAAAGUGAGAAAGAAAAGUAGAAGGCGCGUACA [JL Lego Mod 21] | 50.7 | 326
21 | AAAAAGCGAGGAUAUACAUGAGGAUCACCCAUGUAAAAAAAAAGAGAUGAAACAUCAUGUAGAAGGCGCAAAAA [Excls3-I] | 131 | 67.1
22 | GGUUGGCGAGGAUAUACAUGAGGAUCACCCAUGUGAGUGAAAAAAGUGAGAAAGAAAAGUAGAAGGCGCUGACG [salish99-ex3-47] | 161 | 489
23 | AACUAGUGAGGAUAUGCAAGAAAAAAAAAAAAAAUAAAGGGACAUGAGGAUCACCCAUGUAGAAGGCACUAACA [Diamond 68] | 42.7 | 58.8

Row | Sequence | apparent KD of MS2 coat protein (MS2 coat protein [1]) [nM] | apparent KD of MS2 coat protein (MS2 coat protein [2]) [nM]
24 | AACGGGCUAGGAUAUACACAAGCCUCAUAACAAAUAAACAAACAUGAGGAUCACCCAUGUAGAAGGAGCGCAAA [Quraaon] | 33 | 72.5
25 | CUCAAGUUAGGAUAUUCAAGAAAAGAAGAGAAAGAAAAGAAGAAGAAGGAACAUGAGGAUCACCCAUGUAAGAA [EteRNA is fun!] | 53.8 | 26
26 | GGUUGGCGAGGAUAUACAUGAGGAUCACCCAUGUGAGAGAAAAAAGUGAGAAAGCAAAGUAGAAGGCGCUGACG [salish99-ex3-27] | 51.4 | 321
27 | AAAAACUGAGGAUAUACAUGAGGAUCACCCAUGUGAAAGAACGAAAAACGAAAAGCAAGUAGAAGGCAGAAAAA [Ruby 77] | 20.9 | 26.1
28 | GUAAACCUAGGAUAUACAUGAGGAUCACCCAUGUAAAGUUUCGUAAAAAGAAAAUCGAGUAGAAGGAGGUAGAU [JR_Exc003_Sub1222] | 22.5 | 26.6
29 | UAAACCCUAGGAUAUACAUGAGGAUCACCCAUGUUUGUCGAAGAACGAACAGUCCUCAGUAGAAGGAGGACGAA [Geriza] | 27.4 | 24.3
30 | AAAAAACAUGAGGAUCACCCAUGUAAGGAUAUCUAAAAUAAAAGAAAAAUAAAGAAAAGGAGAAGGUACAAGGA [JL wbt mod 25] | 13.8 | 32.6
31 | CAUUCACAUGAGGAUCACCCAUGUAAGGAUAUCGAAAUAAAACUAAUCAAUAAACAAACGAGAAGGUACAAAAA [Exclusion 1 design 9] | 26 | 21.2
32 | AAAAAGUGAGGAUAUCGGAAAAAAAAAAAAAAAAAAAAAAACGAGAAGGCACAUGAGGAUCACCCAUGUAAAAA [all GC all the time + G boost - take 2] | 42.2 | 45.6
33 | AUAAAGUGAGGAUAUGCUAAUAAAUAAAUAGACAAAUAAAUGCAGAAGGCACAUGAGGAUCACCCAUGUAAGAA [Ex 4 Tesla 3] | 28.4 | 28.9
34 | AAAAAACAUGAGGAUCACCCAUGUUAGGAUAUGCUAUGGAAAAUAAAAAUAAAACAUAGCAGAAGGGACAAAAA [Denovo 1] | 21.3 | 32
35 | AUAAUGUCAGGAUAUCAGUAGUAAAAAAAAAAAAUUACUACUGAGAAGGGACAUGAGGAUCACCCAUGUCAAAA [EX4 307: Super Stable 7] | 27.6 | 24.9
36 | AGCUAGUGAGGAUAUACAAGAAUAUAAACGAACAUAAAGGGACAUGAGGAUCACCCAUGUAGAAGGCACUAGCA [Diamond 73] | 42.6 | 152
37 | AAUAAACAUGAGGAUCACCCAUGUCAGGAUAUGCACAAACAAACAAACAAACAAGCAAGCAGAAGGGACACUAC [Amethyst 88] | 25.4 | 28.6
38 | AAAAAACAUGAGGAUCACCCAUGUGAGGAUAUCUGUAUUCAAUCCUCGGAUUGAAUACAGAGAAGGCACAUGAA [Ex1: 611] | 34 | 330
39 | AAAGAUGGAGGAUAUACAUGAGGAUCACCCAUGUGGAAUCUAAAAUGGGAAAAAGAAAGUAGAAGGCCAUAAAA [Ex 3 May 40] | 36.7 | 83.1
40 | GGUUGGCGAGGAUAUACAUGAGGAUCACCCAUGUGAGAGAAAUAAGUGAGAAAGAAAAGUAGAAGGCGCUGACG [salish99-ex3-43] | 87.7 | 1700
41 | AAUAAGUGAGGAUAUGGAAAUAGUAGAUAAGAUACCCUAAACCAGAAGGCACAUGAGGAUCACCCAUGUAAAUA [JR_Exc004_Sub004] | 32.7 | 23.7
42 | CUCAAGUCAGGAUAUUUAAGAAAAGAAGAGAAAGAAAAGAAAAAGAAGGGACAUGAGGAUCACCCAUGUAAGAA [EteRNA is fun!] | 60.4 | 41.3
43 | AGGAAACAUGAGGAUCACCCAUGUCAGGAUAUACAAAAGAAAAGAAAAGAAAGAAGAAGUAGAAGGGACACGAA [Double Falcon] | 25.1 | 22.5
44 | GGUUGAAAAGGAUAUACAUGAGGAUCACCCAUGUGAGAGAAAAAAGUGAGAAAGAAAAGUAGAAGGUUUUGACG [salish99-ex3-61] | 22.8 | 44
45 | GAUAGUGAAGGAUAUACUGGAGGAGUGCGAUAGAAGAAAGAACAUGAGGAUCACCCAUGUAGAAGGUCAGAAGU [JR_Exc002_Sub1225] | 32.3 | 27.2
